2 proteins from paper doi:10.1101/2020.02.14.949818 (bioRxiv, 2020) can be followed below.

As usually defined, the stoichiometry N is the number of molecules, sites or subunits per partner or assembly.

The series “SEC-SAXS” deals with the molecule itself. The experiment in a line: SEC-SAXS. A general note: SEC sorts molecules by how far they enter the pores of the column.
The series “crystal structure” concerns the molecule itself. The series can be described thus: crystal structure.

B1: truncated human FUT8 (HsFUT8_(105-575)) (domain or fragment)
chain: RNGLGKDHEILRRRIENGAKELWFFLQSELKKLKNLEGNELQRHADEFLLDLGHHERSIMTDLYYLSQTDGAGDWREKEAKDLTELVQRRITYLQNPKDCSKAKKLVCNINKGCGYGCQLHHVVYCFMIAYGTQRTLILESQNWRYATGGWETVFRPVSETCTDRSGISTGHWSGEVKDKNVQVVELPIVDSLHPRPPYLPLAVPEDLADRLVRVHGDPAVWWVSQFVKYLIRPQPWLEKEIEEATKKLGFKHPVIGVHVRRTDKVGTEAAFHPIEEYMVHVEEHFQLLARRMQVDKKRVYLATDDPSLLKEAKTKYPNYEFISDNSISWSAGLHNRYTENSLRGVILDIHFLSQADFLVCTFSSQVCRVAYEIMQTLHPDASANFHSLDDIYYFGGQNAHNQIAIYAHQPRTADEIPMEPGDIIGVAGNHWDGYSKGVNRKLGRTGLYPSYKVREKIETVKYPTYPEAEK
For B1, in “SEC-SAXS”, the “stoichiometry N” value was determined as 2.

B2: mouse FUT8 (MmFUT8_(68-575)) (domain or fragment)
chain: RIPEGPIDQGTATGRVRVLEEQLVKAKEQIENYKKQARNGLGKDHEILRRRIENGAKELWFFLQSELKKLKHLEGNELQRHADEILLDLGHHERSIMTDLYYLSQTDGAGDWREKEAKDLTELVQRRITYLQNPKDCSKARKLVCNINKGCGYGCQLHHVVYCFMIAYGTQRTLILESQNWRYATGGWETVFRPVSETCTDRSGLSTGHWSGEVNDKNIQVVELPIVDSLHPRPPYLPLAVPEDLADRLLRVHGDPAVWWVSQFVKYLIRPQPWLEKEIEEATKKLGFKHPVIGVHVRRTDKVGTEAAFHPIEEYMVHVEEHFQLLARRMQVDKKRVYLATDDPTLLKEAKTKYSNYEFISDNSISWSAGLHNRYTENSLRGVILDIHFLSQADFLVCTFSSQVCRVAYEIMQTLHPDASANFHSLDDIYYFGGQNAHNQIAVYPHKPRTEEEIPMEPGDIIGVAGNHWDGYSKGINRKLGKTGLYPSYKVREKIETVKYPTYPEAEK
Take B2: in “crystal structure”, the binding result is recorded as “binds”.
